Kd data for two molecules are collected here from patent publication US20120238038, “PEPTIDE BINDING TO METHYLATED DNA” (published 2012).

The target of this data set is peptide F (two-zinc-finger peptide, X = phenylalanine) (Artificial Sequence). Briefly: EMSA; 100 uM ZnCl2, 100 mM NaCl, 4 C. Particulars: protein: synthetic; tags: none; chemically synthesized (Fmoc SPPS), C-terminal amide; label: 5'-32P on G chain. How it is done: These bands obtained on the gel were quantified using Image Gauge software (FUJIFILM Corporation, ver. 4.01). The ratio of DNA bound to the peptide ([bound]/[bound]+[free]) was calculated from the band intensity at each peptide concentration; using this and the concentration of the peptide, the dissociation constant between the peptide and the DNA was calculated from the calculation equation (2) below.
Chain of peptide F (two-zinc-finger peptide, X = phenylalanine) (Artificial Sequence) (chain, as listed by the source): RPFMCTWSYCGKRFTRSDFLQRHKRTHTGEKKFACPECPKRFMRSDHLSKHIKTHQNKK
In general terms: A gel shift assay detects complexes by their altered migration in electrophoresis.

What is called Kd is the free concentration of one partner at which half of the binding sites on the other are occupied at equilibrium, for simple one-to-one binding. Higher therefore signals weaker binding.

B1: unmethylated target DNA (dsDNA)
DNA 1: GGGGCGGGGCC
DNA 2: GGCCCCGCCCC
As to B1, the Kd turned out to be 2.1 µM. That is a single-digit micromolar value.

B2: methylated target DNA (dsDNA)
DNA 1: GGGGCGGGGCC
DNA 2: GGCCCCGCCCC
modifications: 5mC at position 5 of G chain and position 6 of C chain
Regarding B2, the Kd was 5.58 µM. Compared with the last molecule, the Kd is about 2.7-fold higher.
